Assay results published in article PMC9033776.

Experiments:
[1] = biological target: BRD4-bromo1 (amino acids 54–168) (UniProt O60885); assay: ITC; 3 mM H2A.Z peptides titrated into 0.3 mM bromodomains; 25 °C; 20 mM Hepes-Na pH 7.5, 100 mM NaCl; One Set of Binding Sites model
[2] = biological target: BRD4-bromo2 domain (amino acids 351–457) (UniProt O60885); assay: as above

Row | Kd [1] | Kd [2] | Substance
1 | 2270 µM | 600 µM | tri-acetylated H2A.Z (1–15) K4acK7acK11ac peptide (from UniProt P0C0S5 2-16)
2 | 4810 µM | 820 µM | di-acetylated H2A.Z (1–15) K4acK7ac peptide (from UniProt P0C0S5 2-16)
